According to paper PMC5159498:

What was measured:
CDC42 Q61L (human) [1] = target: CDC42 Q61L (human) (UniProt P60953); experiment: stopped-flow fluorometry; tGppNHp (tamra-GppNHp)-bound CDC42 or CDC42 Q61L (0.2 μM) rapidly mixed with IQGAP1 variant (2-10 μM GRD1-CT for Q61L); Kd = koff/kon; 30 mM Tris-HCl pH 7.5, 10 mM KH2PO4/K2HPO4, 5 mM MgCl2, 3 mM DTT
CDC42 Q61L (human) [2] = target: CDC42 Q61L (human) (UniProt P60953); experiment: fluorescence polarisation; IQGAP1 variant titrated to mGppNHp-bound RHO protein (1 μM); equilibrium Kd (eKd), quadratic fit; 30 mM Tris/HCl pH 7.5, 150 mM NaCl, 5 mM MgCl2, 3 mM DTT, 25 °C
CDC42 Q61L (human) [3] = target: CDC42 Q61L (human) (UniProt P60953); experiment: fluorescence polarisation; GRD1-CT (0-2.5 μM) or GRD2 (0-7.5 μM) titrated to tGppNHp-bound CDC42 Q61L (1 μM); 30 mM Tris/HCl pH 7.5, 150 mM NaCl, 5 mM MgCl2, 3 mM DTT, 25 °C
CDC42 (aa 1-178) (human) [4] = target: CDC42 (aa 1-178) (human) (UniProt P60953); experiment: fluorescence polarisation; IQGAP1 variant titrated to mGDP-bound (inactive) RHO protein (1 μM), same conditions as with mGppNHp; 30 mM Tris/HCl pH 7.5, 150 mM NaCl, 5 mM MgCl2, 3 mM DTT, 25 °C
Sequence of CDC42 (aa 1-178) (human) (P60953 1-178): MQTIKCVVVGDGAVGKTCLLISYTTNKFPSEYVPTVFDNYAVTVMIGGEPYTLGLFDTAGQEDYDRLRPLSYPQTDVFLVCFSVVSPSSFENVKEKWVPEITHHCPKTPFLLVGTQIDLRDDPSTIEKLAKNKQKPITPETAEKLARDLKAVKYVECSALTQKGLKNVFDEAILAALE

CDC42 (aa 1-178) (human) [5] = target: CDC42 (aa 1-178) (human) (UniProt P60953); experiment: fluorescence polarisation; IQGAP1 variant titrated to mGppNHp-bound RHO protein (1 μM); equilibrium Kd (eKd), quadratic fit; 30 mM Tris/HCl pH 7.5, 150 mM NaCl, 5 mM MgCl2, 3 mM DTT, 25 °C
RAC1 (aa 1-179) (human) = RAC1 (aa 1-179) (human) (UniProt P63000); experiment: as above

Sequence of IQGAP1 GRD1-CT (aa 863-1657) (P46940 863-1657): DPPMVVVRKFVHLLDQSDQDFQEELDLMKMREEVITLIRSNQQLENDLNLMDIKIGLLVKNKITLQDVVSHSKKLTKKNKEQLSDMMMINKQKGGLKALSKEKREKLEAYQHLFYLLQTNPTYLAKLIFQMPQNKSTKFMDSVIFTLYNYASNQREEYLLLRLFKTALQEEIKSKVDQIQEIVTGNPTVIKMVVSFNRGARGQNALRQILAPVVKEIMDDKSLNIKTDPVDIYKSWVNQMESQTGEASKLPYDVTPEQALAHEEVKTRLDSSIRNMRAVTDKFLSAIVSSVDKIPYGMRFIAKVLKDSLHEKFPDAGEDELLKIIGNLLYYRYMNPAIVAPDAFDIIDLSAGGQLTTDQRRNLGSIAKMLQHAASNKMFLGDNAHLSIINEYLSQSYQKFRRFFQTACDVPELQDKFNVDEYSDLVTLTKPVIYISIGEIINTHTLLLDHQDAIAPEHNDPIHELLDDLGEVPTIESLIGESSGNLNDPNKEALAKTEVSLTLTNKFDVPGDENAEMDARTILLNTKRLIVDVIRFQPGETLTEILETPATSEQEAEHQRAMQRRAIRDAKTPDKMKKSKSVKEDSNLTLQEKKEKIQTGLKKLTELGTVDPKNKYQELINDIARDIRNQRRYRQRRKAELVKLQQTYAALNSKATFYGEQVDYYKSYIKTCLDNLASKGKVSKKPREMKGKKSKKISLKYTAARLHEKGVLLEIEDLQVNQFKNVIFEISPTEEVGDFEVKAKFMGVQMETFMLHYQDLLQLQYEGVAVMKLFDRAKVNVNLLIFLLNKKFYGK
Sequence of IQGAP1 GRD2 (aa 962-1345) (P46940 962-1345): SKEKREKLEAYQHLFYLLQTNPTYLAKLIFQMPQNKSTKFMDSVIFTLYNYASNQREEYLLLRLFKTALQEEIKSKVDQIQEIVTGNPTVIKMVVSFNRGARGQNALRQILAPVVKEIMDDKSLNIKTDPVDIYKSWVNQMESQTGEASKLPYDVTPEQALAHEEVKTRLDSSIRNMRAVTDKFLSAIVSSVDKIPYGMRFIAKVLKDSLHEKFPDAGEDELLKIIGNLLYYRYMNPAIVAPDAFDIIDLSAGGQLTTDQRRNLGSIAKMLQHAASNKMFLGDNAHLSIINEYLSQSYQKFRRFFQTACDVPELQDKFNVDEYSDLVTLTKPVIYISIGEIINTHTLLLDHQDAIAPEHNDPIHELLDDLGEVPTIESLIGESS

| Substance | Kd (CDC42 Q61L (human) [1]) [nM] | Kd (CDC42 Q61L (human) [2]) [nM] | Kd (CDC42 Q61L (human) [3]) [nM] | Kd (CDC42 (aa 1-178) (human) [4]) [nM] | Kd (CDC42 (aa 1-178) (human) [5]) [nM] | Kd (RAC1 (aa 1-179) (human)) [nM] |
| --- | --- | --- | --- | --- | --- | --- |
| IQGAP1 GRD1-CT (aa 863-1657) (from UniProt P46940 863-1657) (domain or fragment) | 50 | 830 | 520 |  |  |  |
| IQGAP1 GRD2 (aa 962-1345) (from UniProt P46940 962-1345) (domain or fragment) |  | 2370 | 1130 | 185000 | 30200 | 81500 |
